Test results as given in IntAct's records for PubMed 22949657.

B1: Tumor necrosis factor alpha-induced protein 8-like protein 2 (Homo sapiens), Q6P589 (parent)
chain: MESFSSKSLALQAEKKLLSKMAGRSVAHLFIDETSSEVLDELYRVSKEYTHSRPQAQRVIKDLIKVAIKVAVLHRNGSFGPSELALATRFRQKLRQGAMTALSFGEVDFTFEAAVLAGLLTECRDVLLELVEHHLTPKSHGRIRHVFDHFSDPGLLTALYGPDFTQHLGKICDGLRKLLDEGKL

Variants of: B1
Conditions: with RAC1, P63000-1

| Variant | effect of a mutation on the interaction |
| --- | --- |
| MESFSSKSLALQAEQQLLSKMAGRSVAHLFIDETSSEVLDELYRVSKEYTHSRPQAQRVIKDLIKVAIKVAVLHRNGSFGPSELALATRFRQKLRQGAMTALSFGEVDFTFEAAVLAGLLTECRDVLLELVEHHLTPKSHGRIRHVFDHFSDPGLLTALYGPDFTQHLGKICDGLRKLLDEGKL [K15Q;K16Q] | decreasing interaction strength |
| MESFSSKSLALQAEKKLLSKMAGASVAHLFIDETSSEVLDELYRVSKEYTHSRPQAQRVIKDLIKVAIKVAVLHRNGSFGPSELALATRFRQKLRQGAMTALSFGEVDFTFEAAVLAGLLTECRDVLLELVEHHLTPKSHGRIRHVFDHFSDPGLLTALYGPDFTQHLGKICDGLRKLLDEGKL [R24A] | disrupting interaction strength |
